Patent publication US20210032299A1 (Eli Lilly, published 2021)
Changes are numbered by the printed parent chain. Starred links: 1 amine or outer side, 2 acyl side, 3 side chain; linkers in the order of their positions; H or OH if unused. Non-standard residues stand in square brackets, D forms with d. Groups on a side chain read outwards from the residue. No end group written: not given here. *: point of attachment. C20 diacid = O=C(O)CCCCCCCCCCCCCCCCCCC(=O)*; C18 diacid = O=C(O)CCCCCCCCCCCCCCCCC(=O)*; γGlu = O=C(O)[C@H](CCC(=O)[*:2])N[*:1]; αMeF = C[C@](N)(Cc1ccccc1)C(=O)O; 4Pal = N[C@@H](Cc1ccncc1)C(=O)O; AEEA = NCCOCCOCC(=O)O; Aib = CC(C)(N)C(=O)O

T1: human glucose-dependent insulinotropic peptide receptor (human, UniProt P48546 22-466)
T1 sequence (looked up): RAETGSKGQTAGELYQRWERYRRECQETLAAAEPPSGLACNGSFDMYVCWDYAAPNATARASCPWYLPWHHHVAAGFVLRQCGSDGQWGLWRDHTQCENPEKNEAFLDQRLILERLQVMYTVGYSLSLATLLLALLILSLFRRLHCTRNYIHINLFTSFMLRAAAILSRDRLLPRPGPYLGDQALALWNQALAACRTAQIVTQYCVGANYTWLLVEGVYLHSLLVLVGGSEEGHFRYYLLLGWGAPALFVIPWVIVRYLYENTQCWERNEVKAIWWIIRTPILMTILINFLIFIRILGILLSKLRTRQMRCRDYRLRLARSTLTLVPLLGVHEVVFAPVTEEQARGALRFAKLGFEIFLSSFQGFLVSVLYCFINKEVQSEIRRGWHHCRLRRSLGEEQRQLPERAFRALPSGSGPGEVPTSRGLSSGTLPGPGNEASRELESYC

B1: Example 16 (peptide)
peptide: YXEGTFISDYSILLDKKAQXDFVEWLLAQGPSSGAPPPS
modifications: D-Ala2; K17((2-[2-(2-Amino-ethoxy)-ethoxy]-acetyl)2-(γ-Glu)-CO-(CH2)16-CO2H); Aib20; C-terminal amide
B2: Example 17 (peptide)
peptide: B1 peptide with E24N, A28E
modifications: D-Ala2; K17((2-[2-(2-Amino-ethoxy)-ethoxy]-acetyl)2-(γ-Glu)-CO-(CH2)16-CO2H); Aib20; C-terminal amide
B3: Example 19 (peptide)
peptide: B1 peptide with E24N, Q29G
modifications: D-Ala2; K17((2-[2-(2-Amino-ethoxy)-ethoxy]-acetyl)2-(γ-Glu)-CO-(CH2)16-CO2H); Aib20; C-terminal amide
B4: Example 20 (peptide)
peptide: B1 peptide with D21E, E24N
modifications: D-Ala2; K17((2-[2-(2-Amino-ethoxy)-ethoxy]-acetyl)2-(γ-Glu)-CO-(CH2)16-CO2H); Aib20; C-terminal amide
B5: Example 18 (peptide)
peptide: B1 peptide with E24N, W25X
modifications: D-Ala2; K17((2-[2-(2-Amino-ethoxy)-ethoxy]-acetyl)2-(γ-Glu)-CO-(CH2)16-CO2H); Aib20; 4-Pal25; C-terminal amide
B6: Example 15 (peptide)
peptide: Y[dA]EGTFISDYSILLDKK([AEEA-AEEA-γGlu-C20 diacid])HQQDFVNYLLAQGPSSGAPPPS-NH2
modifications: N-terminus assumed
SMILES: CC[C@H](C)[C@H](NC(=O)[C@H](CO)NC(=O)[C@H](Cc1ccc(O)cc1)NC(=O)[C@H](CC(=O)O)NC(=O)[C@H](CO)NC(=O)[C@@H](NC(=O)[C@H](Cc1ccccc1)NC(=O)[C@@H](NC(=O)CNC(=O)[C@H](CCC(=O)O)NC(=O)[C@@H](C)NC(=O)[C@@H](N)Cc1ccc(O)cc1)[C@@H](C)O)[C@@H](C)CC)C(=O)N[C@@H](CC(C)C)C(=O)N[C@@H](CC(C)C)C(=O)N[C@@H](CC(=O)O)C(=O)N[C@@H](CCCCN)C(=O)N[C@@H](CCCCNC(=O)COCCOCCNC(=O)COCCOCCNC(=O)CC[C@H](NC(=O)CCCCCCCCCCCCCCCCCCC(=O)O)C(=O)O)C(=O)N[C@@H](Cc1c[nH]cn1)C(=O)N[C@@H](CCC(N)=O)C(=O)N[C@@H](CCC(N)=O)C(=O)N[C@@H](CC(=O)O)C(=O)N[C@@H](Cc1ccccc1)C(=O)N[C@H](C(=O)N[C@@H](CC(N)=O)C(=O)N[C@@H](Cc1ccc(O)cc1)C(=O)N[C@@H](CC(C)C)C(=O)N[C@@H](CC(C)C)C(=O)N[C@@H](C)C(=O)N[C@@H](CCC(N)=O)C(=O)NCC(=O)N1CCC[C@H]1C(=O)N[C@@H](CO)C(=O)N[C@@H](CO)C(=O)NCC(=O)N[C@@H](C)C(=O)N1CCC[C@H]1C(=O)N1CCC[C@H]1C(=O)N1CCC[C@H]1C(=O)N[C@@H](CO)C(N)=O)C(C)C
B7: Example 21 (peptide)
peptide: Y[Aib]EGTFISDYSIALDKK([AEEA-AEEA-γGlu-C18 diacid])HQ[Aib]DFVE[4Pal]LLAGGPSSGAPPPS-NH2
modifications: N-terminus assumed
SMILES: CC[C@H](C)[C@H](NC(=O)[C@H](CO)NC(=O)[C@H](Cc1ccc(O)cc1)NC(=O)[C@H](CC(=O)O)NC(=O)[C@H](CO)NC(=O)[C@@H](NC(=O)[C@H](Cc1ccccc1)NC(=O)[C@@H](NC(=O)CNC(=O)[C@H](CCC(=O)O)NC(=O)C(C)(C)NC(=O)[C@@H](N)Cc1ccc(O)cc1)[C@@H](C)O)[C@@H](C)CC)C(=O)N[C@@H](C)C(=O)N[C@@H](CC(C)C)C(=O)N[C@@H](CC(=O)O)C(=O)N[C@@H](CCCCN)C(=O)N[C@@H](CCCCNC(=O)COCCOCCNC(=O)COCCOCCNC(=O)CC[C@H](NC(=O)CCCCCCCCCCCCCCCCC(=O)O)C(=O)O)C(=O)N[C@@H](Cc1c[nH]cn1)C(=O)N[C@@H](CCC(N)=O)C(=O)NC(C)(C)C(=O)N[C@@H](CC(=O)O)C(=O)N[C@@H](Cc1ccccc1)C(=O)N[C@H](C(=O)N[C@@H](CCC(=O)O)C(=O)N[C@@H](Cc1ccncc1)C(=O)N[C@@H](CC(C)C)C(=O)N[C@@H](CC(C)C)C(=O)N[C@@H](C)C(=O)NCC(=O)NCC(=O)N1CCC[C@H]1C(=O)N[C@@H](CO)C(=O)N[C@@H](CO)C(=O)NCC(=O)N[C@@H](C)C(=O)N1CCC[C@H]1C(=O)N1CCC[C@H]1C(=O)N1CCC[C@H]1C(=O)N[C@@H](CO)C(N)=O)C(C)C
B8: Example 23 (peptide)
peptide: Y[Aib]EGT[αMeF]ISDYSIALDKK([AEEA-AEEA-γGlu-C18 diacid])HQ[Aib]DFVE[4Pal]LLAGGPSSGAPPPS-NH2
modifications: N-terminus assumed
SMILES: CC[C@H](C)[C@H](NC(=O)[C@H](CO)NC(=O)[C@H](Cc1ccc(O)cc1)NC(=O)[C@H](CC(=O)O)NC(=O)[C@H](CO)NC(=O)[C@@H](NC(=O)[C@](C)(Cc1ccccc1)NC(=O)[C@@H](NC(=O)CNC(=O)[C@H](CCC(=O)O)NC(=O)C(C)(C)NC(=O)[C@@H](N)Cc1ccc(O)cc1)[C@@H](C)O)[C@@H](C)CC)C(=O)N[C@@H](C)C(=O)N[C@@H](CC(C)C)C(=O)N[C@@H](CC(=O)O)C(=O)N[C@@H](CCCCN)C(=O)N[C@@H](CCCCNC(=O)COCCOCCNC(=O)COCCOCCNC(=O)CC[C@H](NC(=O)CCCCCCCCCCCCCCCCC(=O)O)C(=O)O)C(=O)N[C@@H](Cc1c[nH]cn1)C(=O)N[C@@H](CCC(N)=O)C(=O)NC(C)(C)C(=O)N[C@@H](CC(=O)O)C(=O)N[C@@H](Cc1ccccc1)C(=O)N[C@H](C(=O)N[C@@H](CCC(=O)O)C(=O)N[C@@H](Cc1ccncc1)C(=O)N[C@@H](CC(C)C)C(=O)N[C@@H](CC(C)C)C(=O)N[C@@H](C)C(=O)NCC(=O)NCC(=O)N1CCC[C@H]1C(=O)N[C@@H](CO)C(=O)N[C@@H](CO)C(=O)NCC(=O)N[C@@H](C)C(=O)N1CCC[C@H]1C(=O)N1CCC[C@H]1C(=O)N1CCC[C@H]1C(=O)N[C@@H](CO)C(N)=O)C(C)C
B9: Example 14 (peptide)
peptide: Y[dA]EGTFISDYSILLDKK([AEEA-AEEA-γGlu-C20 diacid])HQQDFVEWLLAQGPSSGAPPPS-NH2
modifications: N-terminus assumed
SMILES: CC[C@H](C)[C@H](NC(=O)[C@H](CO)NC(=O)[C@H](Cc1ccc(O)cc1)NC(=O)[C@H](CC(=O)O)NC(=O)[C@H](CO)NC(=O)[C@@H](NC(=O)[C@H](Cc1ccccc1)NC(=O)[C@@H](NC(=O)CNC(=O)[C@H](CCC(=O)O)NC(=O)[C@@H](C)NC(=O)[C@@H](N)Cc1ccc(O)cc1)[C@@H](C)O)[C@@H](C)CC)C(=O)N[C@@H](CC(C)C)C(=O)N[C@@H](CC(C)C)C(=O)N[C@@H](CC(=O)O)C(=O)N[C@@H](CCCCN)C(=O)N[C@@H](CCCCNC(=O)COCCOCCNC(=O)COCCOCCNC(=O)CC[C@H](NC(=O)CCCCCCCCCCCCCCCCCCC(=O)O)C(=O)O)C(=O)N[C@@H](Cc1c[nH]cn1)C(=O)N[C@@H](CCC(N)=O)C(=O)N[C@@H](CCC(N)=O)C(=O)N[C@@H](CC(=O)O)C(=O)N[C@@H](Cc1ccccc1)C(=O)N[C@H](C(=O)N[C@@H](CCC(=O)O)C(=O)N[C@@H](Cc1c[nH]c2ccccc12)C(=O)N[C@@H](CC(C)C)C(=O)N[C@@H](CC(C)C)C(=O)N[C@@H](C)C(=O)N[C@@H](CCC(N)=O)C(=O)NCC(=O)N1CCC[C@H]1C(=O)N[C@@H](CO)C(=O)N[C@@H](CO)C(=O)NCC(=O)N[C@@H](C)C(=O)N1CCC[C@H]1C(=O)N1CCC[C@H]1C(=O)N1CCC[C@H]1C(=O)N[C@@H](CO)C(N)=O)C(C)C
B10: Example 22 (peptide)
peptide: Y[Aib]EGTFISDYSILLDKK([AEEA-AEEA-γGlu-C18 diacid])HQ[Aib]DFVE[4Pal]LLAGGPSSGAPPPS-NH2
modifications: N-terminus assumed
SMILES: CC[C@H](C)[C@H](NC(=O)[C@H](CO)NC(=O)[C@H](Cc1ccc(O)cc1)NC(=O)[C@H](CC(=O)O)NC(=O)[C@H](CO)NC(=O)[C@@H](NC(=O)[C@H](Cc1ccccc1)NC(=O)[C@@H](NC(=O)CNC(=O)[C@H](CCC(=O)O)NC(=O)C(C)(C)NC(=O)[C@@H](N)Cc1ccc(O)cc1)[C@@H](C)O)[C@@H](C)CC)C(=O)N[C@@H](CC(C)C)C(=O)N[C@@H](CC(C)C)C(=O)N[C@@H](CC(=O)O)C(=O)N[C@@H](CCCCN)C(=O)N[C@@H](CCCCNC(=O)COCCOCCNC(=O)COCCOCCNC(=O)CC[C@H](NC(=O)CCCCCCCCCCCCCCCCC(=O)O)C(=O)O)C(=O)N[C@@H](Cc1c[nH]cn1)C(=O)N[C@@H](CCC(N)=O)C(=O)NC(C)(C)C(=O)N[C@@H](CC(=O)O)C(=O)N[C@@H](Cc1ccccc1)C(=O)N[C@H](C(=O)N[C@@H](CCC(=O)O)C(=O)N[C@@H](Cc1ccncc1)C(=O)N[C@@H](CC(C)C)C(=O)N[C@@H](CC(C)C)C(=O)N[C@@H](C)C(=O)NCC(=O)NCC(=O)N1CCC[C@H]1C(=O)N[C@@H](CO)C(=O)N[C@@H](CO)C(=O)NCC(=O)N[C@@H](C)C(=O)N1CCC[C@H]1C(=O)N1CCC[C@H]1C(=O)N1CCC[C@H]1C(=O)N[C@@H](CO)C(N)=O)C(C)C

These binders were tested against human GLP-1 receptor (human, UniProt P43220 24-463) (assay: cell-based or functional assay).
For B1, the “hGLP1R cAMP Rel EC50” value was > 5000 nM.
With B2 the “hGLP1R cAMP Rel EC50” value was > 5000 nM.
For B3, the “hGLP1R cAMP Rel EC50” value was > 5000 nM.
B4 was tested, and the “hGLP1R cAMP Rel EC50” value was > 5000 nM.
With B5 the “hGLP1R cAMP Rel EC50” value was > 5000 nM.
For B6, the “hGLP1R cAMP Rel EC50” value was > 100 nM.
With B7 the “hGLP1R cAMP Rel EC50” value was > 5000 nM.
In the case of B8, the “hGLP1R cAMP Rel EC50” value is reported as 206 nM.
B9 was tested, and the “hGLP1R cAMP Rel EC50” value was > 100 nM.
In the case of B10, the “hGLP1R cAMP Rel EC50” value is reported as > 5000 nM.

The binders below were run against T1, human glucose-dependent insulinotropic … (assay: cell-based or functional assay).
For B1, the “hGIPR cAMP Rel EC50” value was 0.00937 nM.
For B2, the “hGIPR cAMP Rel EC50” value was 0.0135 nM.
In the case of B3, the “hGIPR cAMP Rel EC50” value is reported as 0.00992 nM.
For B4, the “hGIPR cAMP Rel EC50” value was 0.00933 nM.
B5 was tested, and the “hGIPR cAMP Rel EC50” value was 0.00656 nM.
B6 was tested, and the “hGIPR cAMP Rel EC50” value was 0.282 nM.
In the case of B7, the “hGIPR cAMP Rel EC50” value is reported as 0.291 nM.
In the case of B8, the “hGIPR cAMP Rel EC50” value is reported as 0.0192 nM.
For B9, the “hGIPR cAMP Rel EC50” value was 0.34 nM.
For B10, the “hGIPR cAMP Rel EC50” value was 0.0345 nM.

What follows are binders tested against human glucagon receptor (human, UniProt P47871 26-477) (assay: cell-based or functional assay).
Chain of human glucagon receptor (P47871 26-477): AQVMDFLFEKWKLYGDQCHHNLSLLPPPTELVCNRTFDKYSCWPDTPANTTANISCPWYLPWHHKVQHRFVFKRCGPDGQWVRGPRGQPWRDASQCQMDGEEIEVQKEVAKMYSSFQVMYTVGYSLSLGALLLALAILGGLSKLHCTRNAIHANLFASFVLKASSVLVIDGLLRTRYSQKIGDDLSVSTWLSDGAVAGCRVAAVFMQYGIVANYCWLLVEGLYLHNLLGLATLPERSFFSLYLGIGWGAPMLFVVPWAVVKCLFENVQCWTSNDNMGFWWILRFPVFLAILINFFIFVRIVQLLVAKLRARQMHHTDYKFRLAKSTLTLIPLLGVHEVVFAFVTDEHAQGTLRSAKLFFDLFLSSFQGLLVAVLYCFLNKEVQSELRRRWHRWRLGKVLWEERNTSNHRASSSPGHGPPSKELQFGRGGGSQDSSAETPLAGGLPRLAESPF
In the case of B1, the “hGcgR cAMP Rel EC50” value is reported as > 5000 nM.
B2 was tested, and the “hGcgR cAMP Rel EC50” value was > 5000 nM.
With B3 the “hGcgR cAMP Rel EC50” value was > 5000 nM.
In the case of B4, the “hGcgR cAMP Rel EC50” value is reported as > 5000 nM.
In the case of B5, the “hGcgR cAMP Rel EC50” value is reported as > 5000 nM.
B6 was tested, and the “hGcgR cAMP Rel EC50” value was > 5000 nM.
With B7 the “hGcgR cAMP Rel EC50” value was > 5000 nM.
For B8, the “hGcgR cAMP Rel EC50” value was > 5000 nM.
In the case of B9, the “hGcgR cAMP Rel EC50” value is reported as > 5000 nM.
B10 was tested, and the “hGcgR cAMP Rel EC50” value was 1250 nM.
